What was measured:
[1] = molecular target: T1, cynomolgus monkey CDH6 (full-length, on cells) (cynomolgus monkey, UniProt P55285 54-790 (human entry)); assay: Cell-ELISA and flow cytometry screening of hybridoma supernatants on transfected cells
T1 construct: Expressed from pcDNA3.1-cynoCDH6 on transfected cells; also called cynoCDH6
T1 sequence: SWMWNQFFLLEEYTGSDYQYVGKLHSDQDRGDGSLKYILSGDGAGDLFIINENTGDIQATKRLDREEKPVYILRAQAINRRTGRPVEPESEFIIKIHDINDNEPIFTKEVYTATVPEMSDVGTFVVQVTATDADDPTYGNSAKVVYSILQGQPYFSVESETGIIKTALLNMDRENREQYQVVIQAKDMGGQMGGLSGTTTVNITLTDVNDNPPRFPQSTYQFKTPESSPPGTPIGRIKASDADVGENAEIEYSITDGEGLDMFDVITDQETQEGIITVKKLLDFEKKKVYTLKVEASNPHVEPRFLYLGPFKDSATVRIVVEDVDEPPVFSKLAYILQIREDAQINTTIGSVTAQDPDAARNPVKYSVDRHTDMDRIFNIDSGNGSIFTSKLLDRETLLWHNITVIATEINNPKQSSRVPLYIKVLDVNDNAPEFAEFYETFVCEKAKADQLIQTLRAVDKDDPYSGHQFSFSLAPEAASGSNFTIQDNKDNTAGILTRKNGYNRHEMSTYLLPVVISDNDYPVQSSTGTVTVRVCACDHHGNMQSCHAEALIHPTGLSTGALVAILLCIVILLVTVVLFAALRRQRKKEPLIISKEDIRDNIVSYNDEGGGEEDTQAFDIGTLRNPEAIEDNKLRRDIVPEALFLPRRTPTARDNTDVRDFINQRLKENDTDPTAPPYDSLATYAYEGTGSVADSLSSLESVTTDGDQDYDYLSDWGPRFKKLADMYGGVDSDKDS
Description: A coloring reaction was carried out with occasional stirring. Thereafter, 1 M HCl was added to the plate (100 μL/well) to terminate the coloring reaction, followed by measurement of the absorbance at 490 nm using a plate reader (ENVISION: PerkinElmer, Inc.).
The obtained cell suspension was used in flow cytometry analysis.
The binding specificity to cynomolgus monkey CDH6 of an antibody produced from the human CDH6- and cynomolgus monkey CDH6-binding antibody-producing hybridomas that had been selected by Cell-ELISA in Example 1)-4 was further confirmed by flow cytometry. […] Thereafter, the cells were suspended by the addition of the culture supernatant from each hybridoma. The cells were left standing at 4° C. for 1 hour. The cells were washed twice with PBS supplemented with 5% FBS, and thereafter, the cells were suspended by the addition of Anti-Rat IgG FITC conjugate (Sigma-Aldrich Co. LLC) that had been 500-fold diluted with PBS supplemented with 5% FBS. The cells were left standing at 4° C. for 1 hour. The cells were washed twice with PBS supplemented with 5% FBS, and then re-suspended in PBS supplemented with 5% FBS and 2 μg/ml 7-aminoactinomycin D (Molecular Probes, Inc.), followed by detection using a flow cytometer (FC500; Beckman Coulter, Inc.).

[2] = molecular target: T2, human CDH6 (full-length, on cells) (human, UniProt P55285 54-790); assay: flow cytometry, 293T cells transiently transfected with pcDNA3.1-hCDH6 (open) against untransfected 293T cells (shaded), antibody 10 ng/mL, anti-rat IgG-FITC
T2 construct: also called hCDH6; full-length hCDH6
T2 sequence: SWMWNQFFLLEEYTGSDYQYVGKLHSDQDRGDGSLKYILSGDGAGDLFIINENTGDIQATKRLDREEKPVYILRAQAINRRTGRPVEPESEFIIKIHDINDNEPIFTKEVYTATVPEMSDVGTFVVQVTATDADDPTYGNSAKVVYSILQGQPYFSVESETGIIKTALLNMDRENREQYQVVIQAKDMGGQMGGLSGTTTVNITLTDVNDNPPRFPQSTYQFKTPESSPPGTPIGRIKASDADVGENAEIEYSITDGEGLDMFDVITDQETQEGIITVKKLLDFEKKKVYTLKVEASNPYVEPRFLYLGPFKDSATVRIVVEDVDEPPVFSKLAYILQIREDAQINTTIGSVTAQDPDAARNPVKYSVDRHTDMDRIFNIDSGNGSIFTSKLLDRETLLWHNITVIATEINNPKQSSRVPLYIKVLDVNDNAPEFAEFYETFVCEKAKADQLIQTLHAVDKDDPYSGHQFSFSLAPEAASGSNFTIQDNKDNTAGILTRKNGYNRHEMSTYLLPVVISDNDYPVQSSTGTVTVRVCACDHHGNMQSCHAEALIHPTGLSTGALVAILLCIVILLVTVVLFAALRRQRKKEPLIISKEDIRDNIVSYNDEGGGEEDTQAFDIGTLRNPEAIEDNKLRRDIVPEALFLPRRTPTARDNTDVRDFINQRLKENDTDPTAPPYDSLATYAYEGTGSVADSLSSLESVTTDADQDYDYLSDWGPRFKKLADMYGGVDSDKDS
Description: The human CDH6-binding activity of the rat anti-CDH6 antibody produced in Example 1)-7 was evaluated by flow cytometry. […] The cells were cultured overnight under conditions of 37° C. and 5% C02, treated with TrypLE Express (Thermo Fisher Scientific Inc.), and thereafter, a cell suspension was prepared. […] Thereafter, the cells were suspended by the addition of the rat anti-CDH6 monoclonal antibody (clone No: rG019), which had been prepared in Example 1)-7, or rat IgG control (R&D Systems, Inc.) (final concentration: 10 ng/mL). The cells were left standing at 4° C. for 1 hour. The cells were washed twice with PBS supplemented with 5% FBS, and then suspended by the addition of Anti-Rat IgG (whole molecule)-FITC antibody produced in rabbit (Sigma-Aldrich Co. LLC) that had been 50-fold diluted with PBS supplemented with 5% FBS. The cells were left standing at 4° C. for 1 hour. The cells were washed twice with PBS supplemented with 5% FBS, followed by detection using a flow cytometer (FC500; Beckman Coulter, Inc.). The data was analyzed using FlowJo (TreeStar, Inc.). In the histogram of FIG. 1, the abscissa depicts FITC fluorescence intensity indicating the amount of the antibody bound, and the ordinate depicts a cell count. […] The rat IgG control binds to neither of the cells.

- binding result [1]: binds
- binding result [2]: binds
B1: rat anti-CDH6 monoclonal antibody rG019 (antibody, IgG2b, V domains shown)
VH: QVQLQQSGAELVKPGSSVKISCKASGYTFTRNFMHWIKQQPGNGLEWIGWIYCGDGETEYNQKFNGKATLTADRSSSTAYMELSRLTSEDSAVYFCARGVYGGFAGGYFDFWGQGVMVTVSS
VL: DIQMTQSPSLLSASVGDRVTLNCKASQNIYKNLAWYQQKLGEGPKLLIYDANTLQTGIPSRFSGSGSGSDFTLTISSLQPEDVATYFCQQYYSGWAFGGVTNLELKRA
notes: Rat antibody purified from hybridoma supernatant; also called rG019 antibody; clone rG019

Source: US20220016257A1 (Daiichi Sankyo, published 2022)
